Test results taken from paper doi:10.1101/2021.02.23.432414.
Where two headings read alike, the source gives them in different places.

Columns and labels:
[1] = biological target: fluorescently labelled double-cysteine variant of outer membrane protein X (OmpX_(1,149)), unfolded (UniProt P0A917); assay: single-molecule FRET
[2] = biological target: fluorescently labelled double-cysteine variant of outer membrane protein X (OmpX_(1,149)), unfolded (UniProt P0A917); assay: single-molecule FRET; remark: listed apart in the source

Chain of UniProt P0A917 (P0A917 24-171, change not shown): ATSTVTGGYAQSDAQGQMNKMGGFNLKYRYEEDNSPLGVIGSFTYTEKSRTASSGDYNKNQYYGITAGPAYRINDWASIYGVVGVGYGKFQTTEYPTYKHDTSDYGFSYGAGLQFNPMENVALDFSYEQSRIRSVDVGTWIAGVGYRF

Question: “survival factor A (SurA) (from UniProt P0ABZ6 21-428) (natural protein)” was tested. Which c1/2 [1] did it give?
Answer: 407 nM

Question: What about the dH [1] of the same molecule?
Answer: -132 kJ/mol

Question: What about the percent of uOmpX bound at ~6 uM SurA [1] of the same molecule?
Answer: 87%

B1: seventeen-kilodalton protein (Skp), trimer (natural protein)
chain: ADKIAIVNMGSLFQQVAQKTGVSNTLENEFKGRASELQRMETDLQAKMKKLQSMKAGSDRTKLEKDVMAQRQTFAQKAQAFEQDRARRSNEERGKLVTRIQTAVKSVANSQDIDLVVDANAVAYNSSDVKDITADVLKQVK
Question: B1 was tested. Which c1/2 [2] did it give?
Answer: 359 nM

Question: What about the dH [2] of the same molecule?
Answer: -298 kJ/mol

Question: And the percent of uOmpX bound at 2.5 uM Skp3 [2]?
Answer: 80%
